According to patent publication US6284871:

Columns and labels:
[1] = biological target: purified human Factor IXa (human) (UniProt P00740)
[2] = biological target: purified human Factor IXa (human) (UniProt P00740); test: equilibrium binding in solution (method of Friguet): 30 nM Factor IXa with varying peptide, non-bound Factor IXa measured on immobilized peptide
[3] = biological target: purified human Factor IXa (human) (UniProt P00740); remark: listed apart in the source
[4] = biological target: non-activated Factor IX (Homo sapiens (Human)) (UniProt P00740)
[5] = biological target: non-activated Factor IX (Homo sapiens (Human)) (UniProt P00740); test: equilibrium binding in solution (method of Friguet): 30 nM Factor IX with varying peptide, non-bound Factor IX measured on immobilized peptide

| Anticoagulant activity in the APTT test (prolongation of the clotting time in seconds) [1] | Kd [2] | half-maximal inhibition in the APTT test [3] | half-maximal inhibition in the APTT test [4] | Kd [5] | Molecule |
| --- | --- | --- | --- | --- | --- |
| 8.6 s |  |  |  |  | complete Factor VIII light chain (residues 1649-2332) (from UniProt P00451) |
|  | 200 µM | 0.3 mM | 0.3 mM | 230 µM | KNFVKPNETKTYFWK [compound … (SEQ ID NO: 3), synthetic peptide of Factor VIII A3-domain residues 1804-1818] |
